Laboratory results reported in the supplement of paper PMC9732359.
± gives the uncertainty stated by the source.

Test: protein stability index of a GFP-peptide fusion (yeast GPS) (PSI 1-4); higher = more stable; sorted into four equal gates, so the index is relative within each strain
In short: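 Mid-log yeast cultures in leucine-free medium, carrying a pooled plasmid library, were sorted into four equal gates by their GFP/Cherry fluorescence ratio. Each plasmid expressed Cherry along with GFP fused upstream of a tiled 17-residue yeast protein peptide. Plasmids recovered from each gate were PCR-amplified and Illumina-sequenced, with reads assigned to strains by barcodes. The protein stability index was obtained by summing each gate's read frequency weighted by its gate number.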

TRPQMPSRTRETATSER [GRR1]
protein stability index (doa10∆): 2.85 ± 0.062 | protein stability index (pdr5∆): 3.12 ± 0.06 | protein stability index (san1∆): 3.03 ± 0.05 | protein stability index (ubr1∆): 3.05 ± 0.036

NELPDIEALYDDDTFSD [RPN2]
protein stability index (doa10∆): 3.12 ± 0.1 | protein stability index (pdr5∆): 3.35 ± 0.13 | protein stability index (san1∆): 3.23 ± 0.12 | protein stability index (ubr1∆): 2.98 ± 0.081

VRNLQGIQEVVHNTNSF [NUT1]
protein stability index (doa10∆): 2.98 ± 0.079 | protein stability index (pdr5∆): 3.15 ± 0.068 | protein stability index (san1∆): 2.94 ± 0.063 | protein stability index (ubr1∆): 3.17 ± 0.063

MIKESSTANPNIKLLNN [POP1]
protein stability index (doa10∆): 3.07 ± 0.2 | protein stability index (pdr5∆): 2.9 ± 0.11 | protein stability index (san1∆): 2.83 ± 0.087 | protein stability index (ubr1∆): 2.74 ± 0.066

ELNIIPRDLLRVIIQEL [PRP28]
protein stability index (doa10∆): 1.15 ± 0.062 | protein stability index (pdr5∆): 1.4 ± 0.061 | protein stability index (san1∆): 1.38 ± 0.21 | protein stability index (ubr1∆): 1.15 ± 0.045

YKIKGRNNSKSVLLKKL [SRP72]
protein stability index (pdr5∆): 1.56 ± 0.11 | protein stability index (san1∆): 2.42 ± 0.26 | protein stability index (ubr1∆): 1.06 ± 0.11

AIPNPEDVVAISSRTYG [RPS0B]
protein stability index (doa10∆): 3.33 ± 0.11 | protein stability index (pdr5∆): 3.07 ± 0.055 | protein stability index (san1∆): 2.99 ± 0.079 | protein stability index (ubr1∆): 3.09 ± 0.047

TLSVSHGINLQNKKNLK [SSN2]
protein stability index (doa10∆): 2.7 ± 0.062 | protein stability index (pdr5∆): 2.62 ± 0.054 | protein stability index (san1∆): 2.65 ± 0.077 | protein stability index (ubr1∆): 2.78 ± 0.063

KSLDSIPMSKTIKDLVG [FAS2]
protein stability index (doa10∆): 3.26 ± 0.12 | protein stability index (pdr5∆): 2.97 ± 0.092 | protein stability index (san1∆): 2.79 ± 0.13 | protein stability index (ubr1∆): 3.16 ± 0.075

QHDSSANEDEEEQLDAL [CSN12]
protein stability index (doa10∆): 3.55 ± 0.25 | protein stability index (pdr5∆): 2.75 ± 0.21 | protein stability index (ubr1∆): 3 ± 0.17

NIPQQQQMQPPNSSANN [GAL11]
protein stability index (doa10∆): 2.82 ± 0.062 | protein stability index (pdr5∆): 2.9 ± 0.062 | protein stability index (san1∆): 2.85 ± 0.048 | protein stability index (ubr1∆): 2.75 ± 0.041

KDLETLYNKIWTEASSS [ECM29]
protein stability index (doa10∆): 3.24 ± 0.2 | protein stability index (pdr5∆): 2.84 ± 0.14 | protein stability index (san1∆): 2.71 ± 0.091 | protein stability index (ubr1∆): 2.51 ± 0.083

EESLTVLNCLRTMYFIL [YJR042W/NUP85]
protein stability index (doa10∆): 2.54 ± 0.11 | protein stability index (pdr5∆): 1.83 ± 0.081 | protein stability index (san1∆): 1.38 ± 0.098 | protein stability index (ubr1∆): 1.57 ± 0.068

AKKTSTSVDGKKRSKVR [HTB2]
protein stability index (doa10∆): 3.05 ± 0.19 | protein stability index (pdr5∆): 2.98 ± 0.23 | protein stability index (san1∆): 2.96 ± 0.27 | protein stability index (ubr1∆): 3.31 ± 0.075

VILFDSDWNPQADLQAM [ISW2]
protein stability index (doa10∆): 3.12 ± 0.088 | protein stability index (pdr5∆): 2.38 ± 0.08 | protein stability index (san1∆): 2.84 ± 0.11 | protein stability index (ubr1∆): 2.15 ± 0.057

GPNNFIWPAEDALRRGM [MED4]
protein stability index (doa10∆): 3.35 ± 0.13 | protein stability index (pdr5∆): 3.15 ± 0.11 | protein stability index (san1∆): 3.03 ± 0.079 | protein stability index (ubr1∆): 3.27 ± 0.08

EAMMLKEEGLQQFNLHE [MED1]
protein stability index (doa10∆): 2.97 ± 0.16 | protein stability index (pdr5∆): 3.26 ± 0.15 | protein stability index (san1∆): 3.17 ± 0.12 | protein stability index (ubr1∆): 2.61 ± 0.12

MVALISKKRKLVADGVF [RPS3]
protein stability index (pdr5∆): 1.85 ± 0.18 | protein stability index (san1∆): 1.53 ± 0.13

QKLHKVKKASGEIVSIN [RPL20A]
protein stability index (doa10∆): 2.98 ± 0.076 | protein stability index (pdr5∆): 2.61 ± 0.057 | protein stability index (san1∆): 3.07 ± 0.042 | protein stability index (ubr1∆): 2.8 ± 0.056

GGFEDVEEYTWSSLLNE [RPB2]
protein stability index (pdr5∆): 3.19 ± 0.17 | protein stability index (san1∆): 3.12 ± 0.085

GSNKAQISIIDIWSISK [YML031W/NDC1]
protein stability index (doa10∆): 2.55 ± 0.056 | protein stability index (pdr5∆): 2.76 ± 0.054 | protein stability index (san1∆): 2.88 ± 0.054 | protein stability index (ubr1∆): 2.97 ± 0.048

QKLDILVAKLKKVKSAS [SMC4]
protein stability index (doa10∆): 2.64 ± 0.076 | protein stability index (pdr5∆): 2.25 ± 0.051 | protein stability index (san1∆): 2.61 ± 0.071 | protein stability index (ubr1∆): 2.73 ± 0.045

KAGKVAVVVRGRYAGKK [RPL27A]
protein stability index (doa10∆): 2.19 ± 0.083 | protein stability index (pdr5∆): 2.17 ± 0.053 | protein stability index (san1∆): 2.19 ± 0.097 | protein stability index (ubr1∆): 1.78 ± 0.086

LFSLEKPNLNYFKSILL [SWI1]
protein stability index (doa10∆): 1.38 ± 0.056 | protein stability index (pdr5∆): 1.59 ± 0.055 | protein stability index (san1∆): 1.62 ± 0.082 | protein stability index (ubr1∆): 1.86 ± 0.051

YSIFLENENILIKAKNF [SMC1]
protein stability index (doa10∆): 1.21 ± 0.092 | protein stability index (pdr5∆): 1.22 ± 0.11 | protein stability index (ubr1∆): 1.14 ± 0.1

KKAFTSYDRTLLIADSR [RPS16A]
protein stability index (doa10∆): 2.25 ± 0.044 | protein stability index (pdr5∆): 2.48 ± 0.073 | protein stability index (san1∆): 1.9 ± 0.079 | protein stability index (ubr1∆): 2.24 ± 0.059

VSSLPGSTDKSLDFLNQ [COR1]
protein stability index (doa10∆): 3.45 ± 0.18 | protein stability index (san1∆): 3.02 ± 0.28

PASKQGYLITPPKHTEL [SSN2]
protein stability index (pdr5∆): 3.31 ± 0.3 | protein stability index (san1∆): 2.49 ± 0.17

NFSNVTDLTNNSTDGAK [YIL149C/MLP2]
protein stability index (doa10∆): 2.82 ± 0.041 | protein stability index (pdr5∆): 3.15 ± 0.046 | protein stability index (san1∆): 3.41 ± 0.035 | protein stability index (ubr1∆): 2.85 ± 0.034

HDAPRGLFPFESYKPSV [SWI3]
protein stability index (doa10∆): 3.31 ± 0.091 | protein stability index (pdr5∆): 3.08 ± 0.11 | protein stability index (san1∆): 3.15 ± 0.11 | protein stability index (ubr1∆): 3.1 ± 0.079

SISTYKDILNLASEVGD [ECM29]
protein stability index (doa10∆): 2.63 ± 0.07 | protein stability index (pdr5∆): 2.65 ± 0.076 | protein stability index (san1∆): 2.71 ± 0.071 | protein stability index (ubr1∆): 2.77 ± 0.054

IVWRFISENTFPNGFKN [RPC34]
protein stability index (doa10∆): 1.84 ± 0.06 | protein stability index (pdr5∆): 2.05 ± 0.042 | protein stability index (san1∆): 2.06 ± 0.077 | protein stability index (ubr1∆): 2.33 ± 0.046

DLETSLSQSSSYLETLT [MED2]
protein stability index (doa10∆): 2.94 ± 0.075 | protein stability index (pdr5∆): 3.12 ± 0.11 | protein stability index (san1∆): 2.7 ± 0.077 | protein stability index (ubr1∆): 2.96 ± 0.099

ILMQQQMMARMAQTATQ [SRP54]
protein stability index (doa10∆): 2.34 ± 0.14 | protein stability index (pdr5∆): 2.22 ± 0.1 | protein stability index (san1∆): 2.08 ± 0.12 | protein stability index (ubr1∆): 2.63 ± 0.1

EITEKKNGESLEGEEIK [RPN1]
protein stability index (pdr5∆): 3.03 ± 0.3

EAVDDVFQAKMMDMLKQ [RPN11]
protein stability index (doa10∆): 2.42 ± 0.053 | protein stability index (pdr5∆): 2.58 ± 0.058 | protein stability index (san1∆): 2.02 ± 0.061 | protein stability index (ubr1∆): 2.79 ± 0.065

TSDLLGSHLSETEFPPF [ECM29]
protein stability index (doa10∆): 2.94 ± 0.049 | protein stability index (pdr5∆): 3.17 ± 0.062 | protein stability index (san1∆): 3.17 ± 0.042 | protein stability index (ubr1∆): 2.9 ± 0.058

NDNYSSDMENDNLLLNL [REC8]
protein stability index (doa10∆): 2.9 ± 0.09 | protein stability index (pdr5∆): 2.96 ± 0.12 | protein stability index (san1∆): 2.82 ± 0.1 | protein stability index (ubr1∆): 3.09 ± 0.12

LYAVSTFENTNNTEKND [SIR4]
protein stability index (doa10∆): 2.37 ± 0.072 | protein stability index (pdr5∆): 2.4 ± 0.075 | protein stability index (san1∆): 2.5 ± 0.083 | protein stability index (ubr1∆): 2.38 ± 0.057

TVTNSKFRSSILRKSFD [RPN2]
protein stability index (doa10∆): 2.88 ± 0.1 | protein stability index (pdr5∆): 3.07 ± 0.091 | protein stability index (san1∆): 2.66 ± 0.094 | protein stability index (ubr1∆): 3.31 ± 0.091

VGLVSPSFMLKHHQLFY [RPN1]
protein stability index (doa10∆): 1.64 ± 0.079 | protein stability index (pdr5∆): 1.7 ± 0.083 | protein stability index (san1∆): 1.32 ± 0.16 | protein stability index (ubr1∆): 1.4 ± 0.062

NSSEKNNNNNNNNNNNN [MED2]
protein stability index (doa10∆): 3.09 ± 0.058 | protein stability index (pdr5∆): 3.03 ± 0.058 | protein stability index (san1∆): 2.95 ± 0.059 | protein stability index (ubr1∆): 3.12 ± 0.053

KLLKGATLYIPKALRFD [FAS2]
protein stability index (pdr5∆): 2.79 ± 0.22 | protein stability index (san1∆): 2.88 ± 0.13
